The test concerns the target P. berghei SPECT1Δ41 (amino acids 42-241) (P. berghei). In words: SEC-MALS; TSK-Gel G3000 SWxl column with multiangle static light scattering; 150 mM NaCl, 50 mM Tris or HEPES, pH 7.4; monomer and dimer fractions run separately; the two species are stable over days.

For orientation: stoichiometry N means a count of units in the complex or per binding partner. Regarding “P. berghei SPECT1Δ41 (amino acids 42-241) (domain or fragment)”, the stoichiometry N was 2.
